Holding throughout (conditions): tags: NLS, 6xHis
One data set concerns the target T1, ZM6.3(3) (artificial).
T1 chain: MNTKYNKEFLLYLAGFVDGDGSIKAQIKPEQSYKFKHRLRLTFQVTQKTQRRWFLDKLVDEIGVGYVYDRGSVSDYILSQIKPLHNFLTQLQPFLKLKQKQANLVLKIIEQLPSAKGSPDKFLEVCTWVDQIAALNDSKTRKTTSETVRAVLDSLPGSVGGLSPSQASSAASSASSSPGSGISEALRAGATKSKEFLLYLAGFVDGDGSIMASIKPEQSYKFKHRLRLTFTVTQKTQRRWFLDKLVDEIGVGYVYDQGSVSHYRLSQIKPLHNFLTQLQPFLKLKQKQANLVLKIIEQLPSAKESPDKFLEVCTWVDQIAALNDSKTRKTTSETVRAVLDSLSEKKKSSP
The data set can be described thus: cell_activity; yeast 37 C; 28 C: 0. On the procedure: A 3 mL culture of selective media (MP Biomedical) was inoculated with a single colony of the yeast screening strain and grown at 30° C. overnight. On the following day, a 50 ml YPD culture (MP Biomedical) was started with 2 ml of the overnight culture and grown at 30° C. overnight. On the following day, the cells were harvested by centrifugation at 4000 rpm. The cells were resuspended in 100 ml ice cold water and centrifuged again. The cells were then washed in 1.2 M sorbitol, followed by treatment with 2 ml of 10 mM Tris pH 8.0, 1 mM EDTA, 100 mM Lithium acetate, 10 mM DTT, 0.6M sorbitol for 30 minutes at 30° C. with shaking. The cells were recovered by centrifugation, washed in 40 ml 1.2M sorbitol and finally resuspended in 250 microliters of 1.2M sorbitol. 50 microliter aliquots were transferred to test tubes on ice. Up to 5 microliters of DNA (100-500 nanograms) were added. The suspension was transferred to a 0.2 cm electroporation cuvette, on ice. Electroporation was performed with a pulse charge at 1.5 kV, 200 ohms, 25 microF (pulse time of 5 milliseconds). 1 mL YPD media (MP Biomedical) was added and the cells were allowed to recover at 30° C. for 1-2 hr. The cells were centrifuged, resuspended in 100 uL 1M sorbitol and plated on selective media lacking leucine and containing 2% galactose. The resulting yeast colonies were incubated at various temperatures ranging from 22 to 37 degrees Celsius for 7-10 days. I-CreI and meganucleases derived from it have maximal activity at or above 37 degrees Celsius. Screening was performed at a range of temperatures from 22 to 37 degrees in order to observe increases in activity at lower temperatures which are relevant to certain biological systems (eg. plant cells, plant cell cultures, etc). At that time the red/white sectoring phenotype, indicative of meganuclease activity was observed. Colonies with increased white sectoring over the parental meganuclease (indicating colonies expressing a meganuclease with increased meganuclease activity), also referred to as “hits” and sometimes completely white, were isolated for further analysis. […]

A further data set deals with T2, ZM6.22v2(J2) (artificial).
T2 chain: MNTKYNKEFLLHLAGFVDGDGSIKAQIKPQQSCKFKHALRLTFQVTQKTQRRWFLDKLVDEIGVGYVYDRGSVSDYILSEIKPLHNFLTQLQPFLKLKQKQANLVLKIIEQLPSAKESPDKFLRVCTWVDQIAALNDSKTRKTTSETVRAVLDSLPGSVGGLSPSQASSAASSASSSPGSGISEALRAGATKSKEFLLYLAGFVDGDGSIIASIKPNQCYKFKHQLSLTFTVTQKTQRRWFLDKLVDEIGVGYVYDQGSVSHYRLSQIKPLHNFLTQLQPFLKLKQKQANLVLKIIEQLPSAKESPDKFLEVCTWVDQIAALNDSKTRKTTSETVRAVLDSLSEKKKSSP
Nature of the data set: cell_activity; yeast 37 C; 30 C: 0. On the procedure: (§1) A 3 mL culture of selective media (MP Biomedical) was inoculated with a single colony of the yeast screening strain and grown at 30° C. overnight. On the following day, a 50 ml YPD culture (MP Biomedical) was started with 2 ml of the overnight culture and grown at 30° C. overnight. On the following day, the cells were harvested by centrifugation at 4000 rpm. The cells were resuspended in 100 ml ice cold water and centrifuged again. The cells were then washed in 1.2 M sorbitol, followed by treatment with 2 ml of 10 mM Tris pH 8.0, 1 mM EDTA, 100 mM Lithium acetate, 10 mM DTT, 0.6M sorbitol for 30 minutes at 30° C. with shaking. The cells were recovered by centrifugation, washed in 40 ml 1.2M sorbitol and finally resuspended in 250 microliters of 1.2M sorbitol. 50 microliter aliquots were transferred to test tubes on ice. Up to 5 microliters of DNA (100-500 nanograms) were added. The suspension was transferred to a 0.2 cm electroporation cuvette, on ice. Electroporation was performed with a pulse charge at 1.5 kV, 200 ohms, 25 microF (pulse time of 5 milliseconds). 1 mL YPD media (MP Biomedical) was added and the cells were allowed to recover at 30° C. for 1-2 hr. The cells were centrifuged, resuspended in 100 uL 1M sorbitol and plated on selective media lacking leucine and containing 2% galactose. The resulting yeast colonies were incubated at various temperatures ranging from 22 to 37 degrees Celsius for 7-10 days. I-CreI and meganucleases derived from it have maximal activity at or above 37 degrees Celsius. Screening was performed at a range of temperatures from 22 to 37 degrees in order to observe increases in activity at lower temperatures which are relevant to certain biological systems (eg. plant cells, plant cell cultures, etc). At that time the red/white sectoring phenotype, indicative of meganuclease activity was observed. Colonies with increased white sectoring over the parental meganuclease (indicating colonies expressing a meganuclease with increased meganuclease activity), also referred to as “hits” and sometimes completely white, were isolated for further analysis.
(§2) A total of 13 ZM6.22v2 variants with increased activity were confirmed in the yeast system (as described in Example 6). Increased activity was observed across a range of temperatures: 28 degrees Celsius, 30 degrees Celsius and 37 degrees Celsius, as shown in Table 16.

The next data set concerns the target T3, ZM6.22v2(I9) (artificial).
T3 chain: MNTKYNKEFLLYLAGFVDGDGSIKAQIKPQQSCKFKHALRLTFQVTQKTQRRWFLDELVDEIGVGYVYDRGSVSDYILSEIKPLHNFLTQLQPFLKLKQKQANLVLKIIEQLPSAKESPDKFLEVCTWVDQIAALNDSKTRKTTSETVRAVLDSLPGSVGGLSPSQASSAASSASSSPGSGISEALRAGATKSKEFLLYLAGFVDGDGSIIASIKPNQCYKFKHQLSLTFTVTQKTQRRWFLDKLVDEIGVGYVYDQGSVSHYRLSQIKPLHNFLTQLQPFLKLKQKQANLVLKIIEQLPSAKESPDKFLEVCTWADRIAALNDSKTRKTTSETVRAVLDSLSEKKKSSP
The data set can be described thus: cell_activity; yeast 37 C; 30 C: 0. The protocol: as §1, §2

Another data set concerns the target T4, ZM6.22v2(I4) (artificial).
T4 chain: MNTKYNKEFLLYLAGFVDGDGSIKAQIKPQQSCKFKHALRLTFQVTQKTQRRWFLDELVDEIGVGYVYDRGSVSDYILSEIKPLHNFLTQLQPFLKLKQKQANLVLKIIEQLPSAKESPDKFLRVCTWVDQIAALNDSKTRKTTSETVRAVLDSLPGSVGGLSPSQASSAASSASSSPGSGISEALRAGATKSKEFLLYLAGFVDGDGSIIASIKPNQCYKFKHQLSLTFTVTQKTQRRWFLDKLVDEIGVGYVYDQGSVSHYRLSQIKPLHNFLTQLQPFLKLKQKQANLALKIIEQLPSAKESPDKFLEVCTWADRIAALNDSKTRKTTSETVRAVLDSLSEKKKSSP
Nature of the data set: cell_activity; yeast 37 C; 30 C: 0. The protocol: as §1, §2

Another data set concerns the target T5, ZM6.22v2(I3) (artificial).
T5 chain: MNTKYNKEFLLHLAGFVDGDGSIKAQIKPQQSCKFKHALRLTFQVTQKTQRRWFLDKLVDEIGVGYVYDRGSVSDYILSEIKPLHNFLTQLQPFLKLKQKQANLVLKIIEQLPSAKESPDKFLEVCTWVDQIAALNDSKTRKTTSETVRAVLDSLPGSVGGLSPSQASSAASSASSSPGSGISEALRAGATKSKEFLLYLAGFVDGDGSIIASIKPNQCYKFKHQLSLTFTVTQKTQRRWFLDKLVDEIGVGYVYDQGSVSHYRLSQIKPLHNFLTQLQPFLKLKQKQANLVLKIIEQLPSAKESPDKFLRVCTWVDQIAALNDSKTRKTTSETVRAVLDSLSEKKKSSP
Nature of the data set: cell_activity; yeast 37 C; 30 C: 0. The protocol:
as §1, §2

B1: ZM6.3 recognition site (dsDNA)
DNA 1: CAGGCTCTCGTAAATGCGCCTG
DNA 2: CAGGCGCATTTACGAGAGCCTG
In the case of B1, the activity in the data set with ZM6.3(3) is 2 score 0-4.

B2: ZM6.22v2 recognition site (dsDNA)
DNA 1: ATTGCTCTCTCACATACTTTTA
DNA 2: TAAAAGTATGTGAGAGAGCAAT
On to B2, for which the activity with ZM6.22v2(J2) came to 2 score 0-4; in the data set with ZM6.22v2(I9) it was 2 score 0-4; in the data set with ZM6.22v2(I4), 3 score 0-4; in the data set with ZM6.22v2(I3), 2 score 0-4.
